Where “and” joins values, the source holds several entries; their conditions need not be identical. Equal entries are not always repeated.

The target of the assay is anti-Savinase antibody. As to the kind of experiment: ELISA, anti-Savinase antibody binding of the variant against Savinase as reference. A general note: In an ELISA, binding on a coated surface is turned into a signal by an enzyme label.
As to “Savinase variant D181N (from UniProt P29600 1-269) (enzyme)”, the Antibody binding capacity shown as Delta-binding came to 2.9 fold.
As for “Savinase variant E136R (from UniProt P29600 1-269) (enzyme)”, the figure is 2.8 fold; as for “Savinase variant E136R + N140D (from UniProt P29600 1-269) (enzyme)”, 2.1 fold; as for “Savinase variant N18D (from UniProt P29600 1-269) (enzyme)”, 2 fold.
For “Savinase variant N140D + A172D (from UniProt P29600 1-269) (enzyme)”, the Antibody binding capacity shown as Delta-binding came out at 3.8 fold.
As for “Savinase variant R170F (from UniProt P29600 1-269) (enzyme)”, the figure is 2.4 fold; as for “Savinase variant R170L + Q206E (from UniProt P29600 1-269) (enzyme)”, 2.1 fold; as for “Savinase variant R247E (from UniProt P29600 1-269) (enzyme)”, 2 fold.
Consider “Savinase variant R247H (from UniProt P29600 1-269) (enzyme)”, for which the Antibody binding capacity shown as Delta-binding stood at 2 fold.
Regarding “Savinase variant R247K (from UniProt P29600 1-269) (enzyme)”, the Antibody binding capacity shown as Delta-binding is 2 fold.
In the case of “Savinase variant R247Q (from UniProt P29600 1-269) (enzyme)” it was 2 fold.
As for “Savinase variant R275E (from UniProt P29600 1-269) (enzyme)”, the figure is 2 fold.
As for “Savinase variant S57P + R170L (from UniProt P29600 1-269) (enzyme)”, the figure is 2.1 fold.
Consider “Savinase variant S57P + R170L + R247Q (from UniProt P29600 1-269) (enzyme)”, for which the Antibody binding capacity shown as Delta-binding was 2.1 fold and 2 fold.
Consider “Savinase variant S57P + Y167F + R247Q (from UniProt P29600 1-269) (enzyme)”, for which the Antibody binding capacity shown as Delta-binding was 3 fold.
As for “Savinase variant Y167I + R170L + A194P + N218S (from UniProt P29600 1-269) (enzyme)”, the figure is 3.2 fold; as for “Savinase variant Y167I + R170L + N218S (from UniProt P29600 1-269) (enzyme)”, 4.8 fold.
